# Experimental data published in US11767353B2, “Trail compositions with reduced immunogenicity” (Theraly Fibrosis, Inc., priority 2020, dated 2023).
# Read-outs that look alike come from different tables or passages of the source.
# Columns and labels:
# [1] = in mice; cited from earlier work
# [2] = system: ASPC-1/PSC xenografts; assay: PSC/ASPC-1 subcutaneous xenograft in athymic nude mice; assay type: in vivo; conditions: TLY012 IV 10 mg/kg every other day and/or sorafenib 20 mg/kg oral everyday for 2 weeks
# Procedure: Six-week-old athymic nude mice were anesthetized for all procedures 5×10^6ASPC-1 cells (human pancreas adenocarcinoma ascites metastasis cell line derived from nude mouse xenografts initiated with cells from the ascites of a patient with cancer of the pancreas) were mixed with 5×10^4 PSC cells and injected in a subcutaneous in athymic nude mice. Before injection, the cells were trypsinized, counted, washed twice in 1×PBS and resuspended in 100 μl of Matrigel® matrix (Corning), and injected between the scapulae. Two weeks after the tumor transplantation, mice were injected with TLY012 via intravenous (IV) injection (10 mg/kg, every other day) for 2 weeks, while control mice received PBS. Western blot was performed on tissue extracts with antibodies against GAPDH (Santa Cruz 5 Biotechnology, sc-1694), α-SMA (Sigma, A2547), GRP78 (Santa Cruz Biotechnology, sc-13968), DR4 (Abcam, Cambridge, Mass., #13890), DR5 (Abcam, #47179), PDGF-Rb (Santa Cruz Biotechnology, sc-432), and Cl.PARP-1 (Cell Signaling Technology, #5625).
# Comparative quantitative RT-PCR (qPCR) was performed in the tumor sample for fibrogenic markers. qPCR was performed in triplicate for each sample using fast SYBR Green Master Mix (Thermo Fisher Scientific) and StepOnePlus Real-Time PCR System (Thermo Fisher Scientific). The expression levels of target genes were normalized to the expression of 18s and calculated based on the comparative cycle threshold Ct method (2^−ΔΔCt).
# Collagen deposition was detected with Masson's Trichrome staining and microscopy.
# Mouse xenografts were generated as in Example 8. Two weeks after the tumor transplantation, mice were injected with TLY012 via intravenous (IV) injection (10 mg/kg, every other day) and/or sorafenib (20 mg/kg, oral everyday) for 2 weeks. The mice were euthanized when the tumor volume reached 1500 mm^3 and images of the excised xenografts recorded and tumor weight measured.
# [3] = in apes; cited from earlier work
# [4] = in rodents; cited from earlier work
Molecule,circulating half-life [1] [h],also measured
2K-PEG-TRAIL: 2K PEG derivatized TRAIL reported by Kim et al. 2011a,3.9,
5K-PEG-TRAIL: 5K PEG derivatized TRAIL reported by Kim et al. 2011a,5.3,
10K-PEG-TRAIL: 10K PEG derivatized TRAIL reported by Kim et al. 2011a,6.2,
20K-PEG-TRAIL: 20K PEG derivatized TRAIL reported by Kim et al. 2011a,12.3,
30K-PEG-TRAIL: 30K PEG derivatized TRAIL reported by Kim et al. 2011a,17.7,
"CNC(=O)c1cc(Oc2ccc(NC(=O)Nc3ccc(Cl)c(C(F)(F)F)c3)cc2)ccn1 [Sorafenib, reference compound]",,"tumor weight, Mean [2]: 967 mg"
"TRAIL: Tumor necrosis factor-related apoptosis-inducing ligand, unmodified, literature values",1.1,half-life [3]: about 30 minutes; half-life [4]: several minutes
